# From article PMC8258042
# B1: Poly-T (ssDNA)
# DNA: TTTTTTTTTTTTTTTTTTTTCTCATGCGCTGCCCCTCTTATTTTTTTTTTT
# modifications: 3'-NH2
# Molecular target: cardiac troponin I (cTnI) (human, UniProt P19429 2-210)
# Assay: strand displacement
# Chain of cardiac troponin I (cTnI) (P19429 2-210): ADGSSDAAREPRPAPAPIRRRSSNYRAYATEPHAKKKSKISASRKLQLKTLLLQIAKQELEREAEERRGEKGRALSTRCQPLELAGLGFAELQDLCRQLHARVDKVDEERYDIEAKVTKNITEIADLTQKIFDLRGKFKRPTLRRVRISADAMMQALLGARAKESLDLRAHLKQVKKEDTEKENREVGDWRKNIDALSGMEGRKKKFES
binder,measurement,value
B1,binding result,no binding
